Positions count from the first letter of the chain named. Names may count otherwise.

The record followed here is patent US20220363757A1 (SYMPHOGEN A S, published 2022).

The chains are these.
B1: antibody 15646 (antibody, human IgG1, kappa, L234A L235A, V domains shown)
VH: QVQLQQWGAGLLKPSETLSLTCAVYGGSFSGYYWSWIRQPPGKGLEWIGEINHRGSTNYNPSLKSRVTISVDTSKNQFSLKLSSVTAADTAVYYCTRGEEWESLFFDYWGQGTLVTVSS
VL: EIVLTQSPATLSLSPGERATLSCRASQSISSYLAWYQQKPGQAPRLLIYGASNRATGIPARFSGSGSGTDFTLTISSLEPEDFAVYYCQQRSNWPLTFGGGTRVEIKR
notes: OmniRat-derived human IgG1 with L234A/L235A (LALA), kappa; also called 15646 (15)
B2: antibody 15532 (antibody, human IgG1, kappa, L234A L235A, V domains shown)
VH: QVQLQQWGAGLLRPSETLSLTCAVYGESFSGYYWNWIRQPPGKGLEWIGEINHSGSTNYNPSLKSRVTISVDTSKTQFSLKLSSVTAADTAVYYCARGWDLLDWNDYWNEYWGQGTLVTVSS
VL: B1 VL with I29V, G50D, R103K
notes: OmniRat-derived human IgG1 LALA, kappa
B3: antibody 15431 (antibody, human IgG1, kappa, L234A L235A, V domains shown)
VH: QVQLQQSGPGLVKPSQTLSLTCAISGDSVSSNSAAWNWIRQSPSRGLEWLGRTYYRSKWYNDYAVSVKSRITINPDTSKNQFSLQLNSVTPEDTAVYYCARDDDWNDFDYWGQGTLVTVSS
VL: B1 VL with I29V, G50D, R103K
notes: OmniRat-derived human IgG1 LALA, kappa; also called 15431 (38); 15431 (83)
B4: antibody 15723 (antibody, human IgG1, kappa, L234A L235A, V domains shown)
VH: B1 VH with S35N, R54S, T96A, E100D, E102G, S103E, L104S
VL: B1 VL with I29V, G50A, R103K
notes: OmniRat-derived human IgG1 LALA, kappa; also called 15723 (39)
B5: antibody 15572 (antibody, human IgG1, kappa, L234A L235A, V domains shown)
VH: QLQLQESGPGLVKPSETLSLTCTVSGDSISSSSYYWGWIRQPPGKGLEWIGSIFYSGNTYYNPSLKSRVTISVDTSKNQFSLKLSSVTAADTAVYYCAREDDFLTDYYGAFDIWGQGTMVTVSS
VL: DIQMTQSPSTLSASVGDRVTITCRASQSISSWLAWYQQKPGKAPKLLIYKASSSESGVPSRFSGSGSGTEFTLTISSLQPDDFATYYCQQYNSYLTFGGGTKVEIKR
notes: OmniRat-derived human IgG1 LALA, kappa; also called 15572 (91)
B6: antibody 15595 (antibody, V domains shown)
VH: QVQLVQSGAEVKKPGASVKVSCKVSGYSLTEISMHWVRQAPGKGLEWMGGFDPEDGETIYAQRFQGRVIMTEDTSTDTAYMELSSLRSEDTAVYYCATGGWGPNWFDPWGQGTLVTVSS
VL: DIQMTQSPSSVSASVGDRVTITCRASQGISSWLAWYQQKPGKAPKLLIYAASSLQSGVPSRFSGSGSGTDFTLTISSLQPEDFATYYCQQANSFPFTFGPGTKVDIKR
notes: OmniRat-derived human IgG1 LALA, kappa; also called 15595 (52)
B7: antibody 15011 (antibody, human IgG1, lambda, L234A L235A, V domains shown)
VH: EVQLLESGGGLVQPGGSLRLSCAASGFDFRSYAMMWVRQAPGKGLEWVGGINGEVGGSNTYYAPAVKGRATISRDNSKNTLYLQMNSLRAEDTAVYYCVKGAGACGICNDDIDAWGQGTLVTVSS
VL: SYELTQDPAVSVALGQTVRITCSGAGSYAGSYYYGWHQQKPGQAPVTVIYDNDKRPSNIPDRFSGSSSGNTASLTITGAQAEDEADYYCGSTNDNDDGGLFGSGTKVTVLG
notes: humanized chicken-derived antibody, human IgG1 constant region, lambda (IGLC1*01)

For one assay, the target named is T1, R-PE-labeled recombinant human LAG-3-Fc chimera protein (R&D Systems) (human, UniProt P18627 23-450, conjugated to R-phycoerythrin).
T1 construct: bought; also called LAG-3-Fc-PE; soluble LAG-3; not shown: Fc of the bought chimera, not described
T1 sequence: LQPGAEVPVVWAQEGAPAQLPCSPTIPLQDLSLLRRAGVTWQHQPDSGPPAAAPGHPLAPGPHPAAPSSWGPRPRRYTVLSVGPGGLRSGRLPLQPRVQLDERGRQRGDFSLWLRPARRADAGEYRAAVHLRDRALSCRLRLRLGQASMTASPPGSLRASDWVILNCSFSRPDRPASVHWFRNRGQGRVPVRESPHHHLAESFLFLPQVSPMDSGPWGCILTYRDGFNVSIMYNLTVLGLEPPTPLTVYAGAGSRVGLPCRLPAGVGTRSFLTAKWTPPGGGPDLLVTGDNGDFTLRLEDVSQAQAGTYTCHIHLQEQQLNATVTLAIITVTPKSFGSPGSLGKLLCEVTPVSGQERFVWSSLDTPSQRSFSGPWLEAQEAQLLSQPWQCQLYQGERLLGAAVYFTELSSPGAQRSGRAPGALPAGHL
The assay can be described thus: flow cytometric competition, LAG-3-Fc-PE binding to MHCII on A375 cells, antibody 20 ug/mL.
Turning to B1, the “LAG-3/MHCII Blocking (%)” value turned out to be 49%. The same measure, in the same setting: in the case of B2 it was 89%; in that of B3, 92%. Still for that read-out and setting: in the case of B4 it was 55%; in that of B5, 37%. The same measure, in the same setting: with B6 the figure was 94%; with B7, 92%.

A further assay has as its target T2, human LAG-3 on transiently transfected CHO-S cells (human, UniProt P18627 23-525).
T2 construct: also called huLAG-3
T2 sequence: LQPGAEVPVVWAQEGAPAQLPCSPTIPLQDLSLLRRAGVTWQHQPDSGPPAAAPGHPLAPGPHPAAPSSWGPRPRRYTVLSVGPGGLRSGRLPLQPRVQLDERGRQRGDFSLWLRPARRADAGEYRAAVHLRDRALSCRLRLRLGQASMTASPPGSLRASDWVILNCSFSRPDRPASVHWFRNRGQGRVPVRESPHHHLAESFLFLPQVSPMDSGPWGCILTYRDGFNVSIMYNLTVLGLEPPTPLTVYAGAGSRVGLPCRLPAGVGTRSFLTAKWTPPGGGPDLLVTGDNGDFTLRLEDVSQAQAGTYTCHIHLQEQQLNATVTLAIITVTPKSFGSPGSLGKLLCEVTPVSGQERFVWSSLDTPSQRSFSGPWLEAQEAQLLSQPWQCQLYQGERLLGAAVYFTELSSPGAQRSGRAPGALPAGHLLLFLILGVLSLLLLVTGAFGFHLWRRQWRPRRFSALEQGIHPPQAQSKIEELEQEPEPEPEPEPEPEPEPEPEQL
Kind of assay: flow cytometry on transfected CHO-S cells.
Take B1: the EC50 turned out to be 0.1 nM. The same measure, in the same setting: in the case of B2 it was 0.07 nM; in that of B3, 0.04 nM. On the same count and under the same terms, with B4 the figure was 0.09 nM. Turning to B5, the EC50 was found to be 0.07 nM.

In turn, B6 registered an EC50 of 0.05 nM.
